Results as given in patent US20230220095A1 (ALETA BIOTHERAPEUTICS, published 2023).
“And” between values parts separate entries of the source, which are not always exact repeats. Equal values may be shown once. Blank lines part the entries; values can stand above or below the binder they belong to.

Columns and labels:
CD38 on Daudi cells [1] = biological target: T1, CD38 on Daudi cells (human, UniProt P28907 1-300); test: flow cytometry, titration of fusion protein supernatant on Daudi cells (CD38), a-BCMA-PE detection, % Binding
T1 construct: whole, on cells; Endogenous CD38 of Daudi cells
Protocol: (§1) Daudi cells were obtained from ATCC and cultured in RPMI containing 10% FCS. They were stained for BCMA using anti-BCMA-PE labeled antibody (BioLegend, #357504) and for CD38 using anti-CD38-PE labeled antibody (BioLegend, #356604), or stained with BCMA-containing fusion proteins as described herein. The cells were incubated with antibody or supernatant from A493 or A494 producing cells as follows. The Daudi cells were blocked with human Fc block (BD Biosciences, #BDB564129) for 10 minutes, washed and then diluted to 5×10e5 cells per 50 µl. For each sample, 50 µl of cells was aliquoted per well. For the direct stains, 5 µl of antibody in 50 µl was incubated with the cells for 30 minutes at 4° C. After washing with FACS buffer (FB: PBS, 1% BSA, 0.1% sodium azide), the cells were fixed with a final concentration of 2% paraformaldehyde in FB. For the BCMA fusion protein binding, 50 µl of A493 or A494 supernatant or 3x serial dilution of the supernatant in FB, was added and incubated for 30 minutes at 4° C. The cells were washed 2 times with FB and then stained with anti-His-PE antibody (R&D systems, #ICO5OP) or anti-BCMA-PE antibody (BioLegend, #357504) for 30 minutes at 4° C., the cells were pelleted and washed 2 times in FB and then fixed as above. The samples were analyzed on a BD Accuri 6 flow cytometer and analyzed using BD Accuri 6 software.

CD38 on Daudi cells [2] = biological target: T1, CD38 on Daudi cells; test: flow cytometry, titration of fusion protein supernatant on Daudi cells (CD38), a-His-PE detection, % Binding
Protocol: as §1

[3] = biological target: T2, GPRC5D expressed on transfected HEK293 / 293T cells (UniProt Q9NZD1 1-345, limits assumed); test: flow cytometry, titration of fusion protein supernatant on GPRC5D-transfected HEK293 cells, anti-His detection, % Binding
T2 construct: whole, on cells
T2 sequence (Q9NZD1 whole entry, the tested form may be a part): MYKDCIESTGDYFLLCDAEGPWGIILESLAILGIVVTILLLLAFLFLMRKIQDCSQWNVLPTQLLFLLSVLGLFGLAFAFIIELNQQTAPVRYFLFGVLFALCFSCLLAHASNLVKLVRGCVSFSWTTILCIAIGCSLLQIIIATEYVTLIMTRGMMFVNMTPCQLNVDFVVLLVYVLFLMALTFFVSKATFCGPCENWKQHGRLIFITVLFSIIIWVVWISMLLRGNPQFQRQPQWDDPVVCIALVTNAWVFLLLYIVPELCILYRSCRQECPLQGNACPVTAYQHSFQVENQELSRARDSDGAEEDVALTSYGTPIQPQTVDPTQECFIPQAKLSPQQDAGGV

[4] = biological target: T2, GPRC5D expressed on transfected HEK293 …; test: flow cytometry, titration of fusion protein supernatant on GPRC5D-transfected HEK293 cells, anti-BCMA detection, % Binding
[5] = biological target: T2, GPRC5D expressed on transfected HEK293 …; test: binding of HEK293 supernatants to GPRC5D-expressing HEK293 cells

B1: BCMA-anti-CD38 fusion protein, construct #494 (BCMA ECD C-terminal to the anti-CD38 scFv, C-terminal His tag) (other)
chain: DIQMTQSPSSLSASVGDRVTITCRASQGIRSWLAWYQQKPEKAPKSLIYAASSLQSGVPSRFSGSGSGTDFTLTISSLQPEDFATYYCQQYNSYPLTFGGGTKVEIKGGGGSGGGGSGGGGSGGGGSQVQLVQSGAEVKKPGSSVKVSCKAFGGTFSSYAISWVRQAPGQGLEWMGRIIRFLGIANYAQKFQGRVTLIADKSTNTAYMELSSLRSEDTAVYYCAGEPGERDPDAVDIWGQGTMVTVSSGGGGSGGGGSGGGGSGGGGSMLQMAGQCSQNEYFDSLLHACIPCQLRCSSNTPPLTCQRYCNASVTNSVKGTNAHHHHHH
notes: also called A494
- EC50 (CD38 on Daudi cells [1]): 0.0123 µg/mL and 0.364 nM
- EC50 (CD38 on Daudi cells [2]): 0.00315 µg/mL and 0.093 nM

B3: anti-GPRC5D scFv, construct 524 (scFv)
scFv: SSELTQDPAVSVALGQTVRITCQGDSLRSYYASWYQQKPGQAPVLVIYGKNNRPSGIPDRFSGSSSGNTASLTITGAQAEDEADYYCNSRDSSGNPPVVFGGGTKLTVLGSRGGGGSGGGGSGGGGSLEMAQVQLVESGGGLVHPGGSLRLSCAASGFTFRSHSMNWVRQAPGKGLEWVSSISSDSTYTYYADSVKGRFTISRDNAKNSLYLQMNSLRAEDTAVYYCARSGGQWKYYDYWGQGTLVTVSSHHHHHH
notes: VL-G4Sx3-VH-His; Tested as HEK293 supernatant; also called A524
- binding result [5]: binds

B5: BCMA-anti-CD38 fusion protein, construct #493 (BCMA ECD N-terminal to the anti-CD38 scFv, C-terminal His tag) (other)
chain: MLQMAGQCSQNEYFDSLLHACIPCQLRCSSNTPPLTCQRYCNASVTNSVKGTNAGGGGSGGGGSGGGGSGGGGSDIQMTQSPSSLSASVGDRVTITCRASQGIRSWLAWYQQKPEKAPKSLIYAASSLQSGVPSRFSGSGSGTDFTLTISSLQPEDFATYYCQQYNSYPLTFGGGTKVEIKGGGGSGGGGSGGGGSGGGGSQVQLVQSGAEVKKPGSSVKVSCKAFGGTFSSYAISWVRQAPGQGLEWMGRIIRFLGIANYAQKFQGRVTLIADKSTNTAYMELSSLRSEDTAVYYCAGEPGERDPDAVDIWGQGTMVTVSSHHHHHH
notes: also called A493; N-terminal construct
- EC50 (CD38 on Daudi cells [1]): 0.0056 µg/mL and 0.165 nM
- EC50 (CD38 on Daudi cells [2]): 0.00218 µg/mL and 0.0642 nM

B7: anti-GPRC5D scFv-BCMA ECD-His fusion protein, construct 537 (other)
chain: QSVLTQPPSASGTPGQRVTISCSGSRSNVGGNYVFWYQQVPGATPKLLIYRSNQRPSGVPDRFAGSKSGSSASLAISGLRSEDEADYYCATWDDSLSGFVFGTGTKVTVLGSRGGGGSGGGGSGGGGSLEMAEVQLVESGGGLVKPGGSLRLSCAASGFTFSDYYMSWIRQAPGKGLEWVSYISSSGSTIYYADSVKGRFTISRDNAKNSLYLQMNSLRAEDTAVYYCARGYGKAYDQWGQGTLVTVSSGGGGSGGSMLQMAGQCSQNEYFDSLLHACIPCQLRCSSNTPPLTCQRYCNASVTNSVKGTNAHHHHHH
notes: scFv of construct 523 - linker - BCMA ECD - His; Tested as HEK supernatant; also called A537; anti-GPRC5D-BCMA fusion protein
- EC50 [3]: 0.0156 µg/mL and 0.469 nM
- EC50 [4]: 0.00553 µg/mL and 0.166 nM

B9: anti-GPRC5D scFv, construct 525 (scFv)
scFv: QSVVTQPPSMSAAPGQQVTISCSGGNSNIERNYVSWYLQLPGTAPKLVIFDNDRRPSGIPDRFSGSKSGTSATLGITGLQTGDEADYYCGTWDSSLRGWVFGGGTKLTVLGSRGGGGSGGGGSGGGGSLEMAEVQLVESGGGLIQPGGSLRLSCAASGFTFSNYAMNWVRQAPGKGLEWVSTINGRGSSTIYADSVKGRFTISRDNSKNTLYLQMNSLRAEDTATYYCARYISRGLGDSWGQGTLVTVSSHHHHHH
notes: VL-G4Sx3-VH-His; Tested as HEK293 supernatant; also called A525
- binding result [5]: binds

B10: anti-GPRC5D scFv, construct 523 (scFv)
scFv: QSVLTQPPSASGTPGQRVTISCSGSRSNVGGNYVFWYQQVPGATPKLLIYRSNQRPSGVPDRFAGSKSGSSASLAISGLRSEDEADYYCATWDDSLSGFVFGTGTKVTVLGSRGGGGSGGGGSGGGGSLEMAEVQLVESGGGLVKPGGSLRLSCAASGFTFSDYYMSWIRQAPGKGLEWVSYISSSGSTIYYADSVKGRFTISRDNAKNSLYLQMNSLRAEDTAVYYCARGYGKAYDQWGQGTLVTVSSHHHHHH
notes: VL-G4Sx3-VH-His; Tested as HEK293 supernatant; also called A523
- binding result [5]: binds

Other lines, results leading:

- EC50 [3]: 0.86 nM and 0.0287 µg/mL
- EC50 [4]: 0.00509 µg/mL and 0.152 nM
B2: anti-GPRC5D scFv-BCMA ECD-His fusion protein, construct 536 (other)
chain: QSVLTQPASVSGSPGQSLTISCTGTSNDVGAYKYVSWYQQYPGKAPKLILYDVFKRPSGVSNRFSGSKSDNTASLTISGLQAEDEADYYCFSLTSSNTYVFGTGTKVTVLGSRGGGGSGGGGSGGGGSLEMAQMQLVQSGAEVKKPGASVKVSCKASGYTFNRYAITWVRQAPGQGLEWMGWISAYNGNSHYAQKLQGRVTMTTDTSTGTAYMELRRLRSDDTAVYYCARMAYDSWGQGTLVTVSSGGGGSGGGGSMLQMAGQCSQNEYFDSLLHACIPCQLRCSSNTPPLTCQRYCNASVTNSVKGTNAHHHHHH
notes: scFv of construct 522 - linker - BCMA ECD - His; Tested as HEK supernatant; also called A536; anti-GPRC5D-BCMA fusion protein

- EC50 [3]: 0.0193 µg/mL and 0.572 nM
- EC50 [4]: 0.00669 µg/mL and 0.198 nM
B4: anti-GPRC5D scFv-BCMA ECD-His fusion protein, construct 539 (other)
chain: QSVVTQPPSMSAAPGQQVTISCSGGNSNIERNYVSWYLQLPGTAPKLVIFDNDRRPSGIPDRFSGSKSGTSATLGITGLQTGDEADYYCGTWDSSLRGWVFGGGTKLTVLGSRGGGGSGGGGSGGGGSLEMAEVQLVESGGGLIQPGGSLRLSCAASGFTFSNYAMNWVRQAPGKGLEWVSTINGRGSSTIYADSVKGRFTISRDNSKNTLYLQMNSLRAEDTATYYCARYISRGLGDSWGQGTLVTVSSGGGGSGGGGSGGGGSMLQMAGQCSQNEYFDSLLHACIPCQLRCSSNTPPLTCQRYCNASVTNSVKGTNAHHHHHH
notes: scFv of construct 525 - G4Sx3 linker - BCMA ECD - His; Tested as HEK supernatant; also called A539; anti-GPRC5D-BCMA fusion protein

- binding result [5]: binds
B6: anti-GPRC5D scFv, construct 522 (scFv)
scFv: QSVLTQPASVSGSPGQSLTISCTGTSNDVGAYKYVSWYQQYPGKAPKLILYDVFKRPSGVSNRFSGSKSDNTASLTISGLQAEDEADYYCFSLTSSNTYVFGTGTKVTVLGSRGGGGSGGGGSGGGGSLEMAQMQLVQSGAEVKKPGASVKVSCKASGYTFNRYAITWVRQAPGQGLEWMGWISAYNGNSHYAQKLQGRVTMTTDTSTGTAYMELRRLRSDDTAVYYCARMAYDSWGQGTLVTVSSHHHHHH
notes: VL-G4Sx3-VH-His; Tested as HEK293 supernatant; also called A522

- EC50 [3]: 0.00608 µg/mL and 0.182 nM
- EC50 [4]: 0.00225 µg/mL and 0.067 nM
B8: anti-GPRC5D scFv-BCMA ECD-His fusion protein, construct 538 (other)
chain: SSELTQDPAVSVALGQTVRITCQGDSLRSYYASWYQQKPGQAPVLVIYGKNNRPSGIPDRFSGSSSGNTASLTITGAQAEDEADYYCNSRDSSGNPPVVFGGGTKLTVLGSRGGGGSGGGGSGGGGSLEMAQVQLVESGGGLVHPGGSLRLSCAASGFTFRSHSMNWVRQAPGKGLEWVSSISSDSTYTYYADSVKGRFTISRDNAKNSLYLQMNSLRAEDTAVYYCARSGGQWKYYDYWGQGTLVTVSSGGGGSGGGGSGGGGSMLQMAGQCSQNEYFDSLLHACIPCQLRCSSNTPPLTCQRYCNASVTNSVKGTNAHHHHHH
notes: scFv of construct 524 - G4Sx3 linker - BCMA ECD - His; also called A538; bridging protein #538
